Experimental data published in the supplement of paper PMC11246515.
± gives the standard deviation of the averaged measurements.

Test: total protein half-life in vivo (active degradation + dilution); higher = more stable protein
[1] = E. coli NCM3722 delta-clpP delta-lon delta-hslV, growth: N-lim chemostat, doubling time 6 h
[2] = E. coli NCM3722 delta-clpP, growth: N-lim chemostat, doubling time 6 h
[3] = E. coli NCM3722 delta-hslV, growth: N-lim chemostat, doubling time 6 h
[4] = E. coli NCM3722 delta-lon, growth: N-lim chemostat, doubling time 6 h
[5] = E. coli NCM3722 delta-smpB, growth: N-lim chemostat, doubling time 6 h
[6] = wild type E. coli NCM3722, growth: C-lim chemostat, doubling time 3 h
[7] = wild type E. coli NCM3722, growth: C-lim chemostat, doubling time 6 h
[8] = wild type E. coli NCM3722, growth: C-lim chemostat, doubling time 12 h
[9] = wild type E. coli NCM3722, growth: N-lim chemostat, doubling time 6 h
[10] = wild type E. coli NCM3722, growth: N-lim chemostat, doubling time 12 h
[11] = wild type E. coli NCM3722, growth: P-lim chemostat, doubling time 6 h
[12] = wild type E. coli NCM3722, growth: P-lim chemostat, doubling time 12 h

Row | Sequence | total protein half-life in vivo [1] [h] | total protein half-life in vivo [2] [h] | total protein half-life in vivo [3] [h] | total protein half-life in vivo [4] [h] | total protein half-life in vivo [5] [h] | total protein half-life in vivo [6] [h] | total protein half-life in vivo [7] [h] | total protein half-life in vivo [8] [h] | total protein half-life in vivo [9] [h] | total protein half-life in vivo [10] [h] | total protein half-life in vivo [11] [h] | total protein half-life in vivo [12] [h]
1 | MEFSVKSGSPEKQRSACIVVGVFEPRRLSPIAEQLDKISDGYISALLRRGELEGKPGQTLLLHHVPNVLSERILLIGCGKERELDERQYKQVIQKTINTLNDTGSMEAVCFLTELHVKGRNNYWKVRQAVETAKETLYSFDQLKTNKSEPRRPLRKMVFNVPTRRELTSGERAIQHGLAIAAGIKAAKDLGNMPPNICNAAYLASQARQLADSYSKNVITRVIGEQQMKELGMHSYLAVGQGSQNESLMSVIEYKGNASEDARPIVLVGKGLTFDSGGISIKPSEGMDEMKYDMCGAAAVYGVMRMVAELQLPINVIGVLAGCENMPGGRAYRPGDVLTTMSGQTVEVLNTDAEGRLVLCDVLTYVERFEPEAVIDVATLTGACVIALGHHITGLMANHNPLAHELIAASEQSGDRAWRLPLGDEYQEQLESNFADMANIGGRPGGAITAGCFLSRFTRKYNWAHLDIAGTAWRSGKAKGATGRPVALLAQFLLNRAGFNGEE | 6.37 ± 0.15 | 6.34 ± 0.31 | 6.11 ± 0.078 | 7.01 ± 0.64 | 5.81 ± 0.16 | 3.38 ± 0.097 | 6.45 ± 0.3 | 11.7 ± 1 | 6.215 ± 0.053 | 12.7 ± 1.1 | 6.33 ± 0.09 | 12.7 ± 0.79
2 | MEGWQRAFVLHSRPWSETSLMLDVFTEESGRVRLVAKGARSKRSTLKGALQPFTPLLLRFGGRGEVKTLRSAEAVSLALPLSGITLYSGLYINELLSRVLEYETRFSELFFDYLHCIQSLAGVTGTPEPALRRFELALLGHLGYGVNFTHCAGSGEPVDDTMTYRYREEKGFIASVVIDNKTFTGRQLKALNAREFPDADTLRAAKRFTRMALKPYLGGKPLKSRELFRQFMPKRTVKTHYE [P0A7H3] |  | 2.812 ± 0.027 |  | > 8 |  | 1.98 |  | 2.57 |  | 2.87 |  | 4.34
3 | MEIFFTILIMTLVVSLSGVVTRVMPFQIPLPLMQIAIGALLAWPTFGLHVEFDPELFLVLFIPPLLFADGWKTPTREFLEHGREIFGLALALVVVTVVGIGFLIYWVVPGIPLIPAFALAAVLSPTDAVALSGIVGEGRIPKKIMGILQGEALMNDASGLVSLKFAVAVAMGTMIFTVGGATVEFMKVAIGGILAGFVVSWLYGRSLRFLSRWGGDEPATQIVLLFLLPFASYLIAEHIGVSGILAAVAAGMTITRSGVMRRAPLAMRLRANSTWAMLEFVFNGMVFLLLGLQLPGILETSLMAAEIDPNVEIWMLFTNIILIYAALMLVRFGWLWTMKKFSNRFLKKKPMEFGSWTTREILIASFAGVRGAITLAGVLSIPLLLPDGNVFPARYELVFLAAGVILFSLFVGVVMLPILLQHIEVADHSQQLKEERIARAATAEVAIVAIQKMEERLAADTEENIDNQLLTEVSSRVIGNLRRRADGRNDVESSVQEENLERRFRLAALRSERAELYHLRATREISNETLQKLLHDLDLLEALLIEENQ | 6.08 ± 0.45 |  | 6.29 ± 0.48 | 5.55 ± 0.11 | 5.17 ± 1.3 |  | 5.6 ± 0.69 | 11.9 ± 0.93 | 5.74 ± 0.28 | 10.9 ± 0.26 | 6.31 ± 0.26 | 11.4 ± 0.66
4 | MEIREGHNKFYINDKQGKQIAEIVFVPTGENLAIIEHTDVDESLKGQGIGKQLVAKVVEKMRREKRKIIPLCPFAKHEFDKTREYDDIRS |  |  |  |  |  |  |  |  |  | > 16 |  | 12
5 | MEITEPRRLYQQLAADLKERIEQGVYLVGDKLPAERFIADEKNVSRTVVREAIIMLEVEGYVEVRKGSGIHVVSNQPRHQQAADNNMEFANYGPFELLQARQLIESNIAEFAATQVTKQDIMKLMAIQEQARGEQCFRDSEWDLQFHIQVALATQNSALAAIVEKMWTQRSHNPYWKKLHEHIDSRTVDNWCDDHDQILKALIRKDPHAAKLAMWQHLENTKIMLFNETSDDFEFNADRYLFAENPVVHLDTATSGSK [P0ACL2] | 5.59 ± 0.086 | 4.22 ± 0.52 | 1.94 ± 0.086 | 2.4 ± 0.26 | 2.12 ± 0.16 | 1.97 ± 0.099 | 3.7 ± 0.26 | 5.16 ± 0.083 | 1.97 ± 0.043 | 2.59 ± 0.37 | 2.99 ± 0.29 | 4.91 ± 0.27
6 | MEKKLPRIKALLTPGEVAKRSGVAVSALHFYESKGLITSIRNSGNQRRYKRDVLRYVAIIKIAQRIGIPLATIGEAFGVLPEGHTLSAKEWKQLSSQWREELDRRIHTLVALRDELDGCIGCGCLSRSDCPLRNPGDRLGEEGTGARLLEDEQN [P0ACS2] | 4.33 ± 0.31 | 1.34 |  | 2.45 | 1.49 |  | 2.35 | 3.19 ± 0.38 | 1.33 |  |  | 
7 | MEKRTPHTRLSQVKKLVNAGQVRTTRSALLNADELGLDFDGMCNVIIGLSESDFYKSMTTYSDHTIWQDVYRPRLVTGQVYLKITVIHDVLIVSFKEK | 5.29 |  |  |  | 5 | 3.12 |  |  |  |  |  | 13.2 ± 0.69
8 | MEKVMLSFDKVSAHYGKIQALHEVSLHINQGEIVTLIGANGAGKTTLLGTLCGDPRATSGRIVFDDKDITDWQTAKIMREAVAIVPEGRRVFSRMTVEENLAMGGFFAERDQFQERIKWVYELFPRLHERRIQRAGTMSGGEQQMLAIGRALMSNPRLLLLDEPSLGLAPIIIQQIFDTIEQLREQGMTIFLVEQNANQALKLADRGYVLENGHVVLSDTGDALLANEAVRSAYLGG | 5.87 ± 0.53 | 6.13 ± 0.64 | 5.66 ± 0.54 | 6.44 ± 0.9 | 5.58 ± 0.61 | 3.07 ± 0.055 | 5.86 ± 0.22 | 12.4 ± 0.52 | 5.51 ± 0.47 | 10.1 ± 1.1 | 5.94 ± 0.59 | 13.5 ± 0.69
9 | MELHCPQCQHVLDQDNGHARCRSCGEFIEMKALCPDCHQPLQVLKACGAVDYFCQHGHGLISKKRVEFVLA | 5.52 ± 2.3 | 4.63 |  |  |  |  |  | 4.37 | 6.43 | 5.69 |  | > 16
